# The DeepSol protein solubility set
# Assay: soluble on expression in E. coli; label from the status in PepcDB or PDB records
row,Sequence,soluble on expression in E. coli
1,MNYGFNFLHNTIIMMIIRSIIFRNFLFSISQLSQLNNVNTCSIIFHSLFTHFQITSHFTQMAAASSAPHQMQVRVTFYTSHNPQSVLMILKNDQALQQISEKARELFPSADYRLYYGDVNGPIFEFTNSDQIMSKIRITTFSRTPQLFVRLETVPLRPTALPSVSTETAKKASDADRESKSRSSLKRIENNQELTLKTLEKLQKELSRVSALETMVADLHAKEREPVVEEVQKPFPPVKHSASCDACLGDIIGHRFKCLECADYDLCEKCERKSLHYEHAMIRIVEPKKTMIPSYVTSNSPNNVFPTYMQHKIQQPQTIKGINKTVITRLVPSHQVNPAPMPQAPPVSTPVPFPPSPTIGNGAVPKPAQEPRIPPSPTSALPPPQFFNEETRAAIINSAALLKETFSTLSRSFLDLADGAQANMDKKIIERSTMEAGMTKFEEKMDNLKRHCEEKYLGTETAEAEKSEESSKKQADSLSGPKIKKAKKKSCYKKSAERLFTMQLAAAAAEQARLEQEAKKRAEASSAELQRKLAELNVKESQSKSEENIADFVLYDLYGNSLEALLRGRSSSRIADPPTTPNTEPATTELASTTSATPAVTAPASIVPVTPTAPIVETLIVPPLPPVESNPEEVTPMVTAPISIHSSFENISSDFESLSPSWGGYPDLEAAQRLEVIDDNLLDFSDVAVEAQEAQEAQEEARPEPEQSLPPFNEETEKTFDRLLEMGFSYNVTVAAIRANGSNLEMCLQALLH,not soluble
2,MNYILGTILESKITGVEKAQINRLKLFKQHGISSKCVYVKWNPYSYTYAKQHQIENDVFTMYDYFQKAINYKKTKQVNWIQYWEKSCRYTLKFVENSNDVRIYDEEQFVMYAHFLDKQYHQLNYVNYFDHKRRKVKRELYDGRGFLSCSRILGEGQRIVLENYYTPNGEIVIQKYFDDIKGKNTLTKVILNEDQHQQFFDTEDELVQYFLHQLCKNNDQIILDRPHELGNVIAGLNQSIPVIVVLHSTHLSGAGNGIKSFYKTVFNNLTRYKAIVVSTEKQCQDISQYIENKIPVINIPVGYVANLKYQFDINQKEKNHIISIARLVENKQIKHQIEVIKQLVTKHPNIQLNIYGHGNGLSEYRQLVEDYHLSEHVKFHGFKTHINEEIAKAELMLSTSKMEGFGLAILESLSVGTPVISYDVDYGPSELIQDGFNGYLVPQGDINQMVEKVDQLLNNTQKLQQFSINSIESAQQYNATTISTKWQNILN,not soluble
3,MNYLFKNGRYMNEEGKIVATDLLVQDGKIAKVAENITADNAEVIDVNGKLIAPGLVDVHVHLREPGGEHKETIETGTLAAAKGGFTTICAMPNTRPVPDCREHMEDLQNRIKEKAHVNVLPYGAITVRQAGSEMTDFETLKELGAFAFTDDGVGVQDASMMLAAMKRAAKLNMAVVAHCEENTLINKGCVHEGKFSEKHGLNGIPSVCESVHIARDILLAEAADCHYHVCHVSTKGSVRVIRDAKRAGIKVTAEVTPHHLVLCEDDIPSADPNFKMNPPLRGKEDHEALIEGLLDGTIDMIATDHAPHTAEEKAQGIERAPFGITGFETAFPLLYTNLVKKGIITLEQLIQFLTEKPADTFGLEAGRLKEGRTADITIIDLEQEEEIDPTTFLSKGKNTPFAGWKCQGWPVMTIVGGKIAWQKESALV,not soluble
4,MNYPAEPFRIKSVETVSMISRDERVKKMQEAGYNTFLLNSKDIYIDLLTDSGTNAMSDKQWAGMMIGDEAYAGSENFYHLEKTVKELFGFKHIVPTHQGRGAENLLSQLAIKPGQYVAGNMYFTTTRFHQEKNGATFVDIVRDEAHDASLNLPFKGDIDLNKLATLIKEKGAENIAYICLAVTVNLAGGQPVSMANMRAVHEMASTYGIKIFYDATRCVENAYFIKEQEAGYENVSIKDIVHEMFSYADGCTMSGKKDCLVNIGGFLCMNDEEMFSAAKELVVVYEGMPSYGGLAGRDMEAMAIGLREAMQYEYIEHRVKQVRYLGDKLREAGVPIVEPTGGHAVFLDARRFCPHLTQDQFPAQSLAASIYMETGVRSMERGIVSAGRSKETGENHRPKLETVRLTIPRRVYTYAHMDVVADGIIKLYQHKEDIRGLTFVYEPKQLRFFTARFDFI,soluble
5,MNYPMIAGRVFGTPLLVDPVKGAAFLAGLGPRLVNGALELRGLEELAPDRVAEAGRIAPRASVLLDDAGDARREAGRPLYLVEGGVAVIEVTGTLVHRGGWIGQSSGTTSYEGLMAQISAAVADPSVRGIALEIDSYGGEVAGLFDLADAIRAARAVKPVRAFVAEAALSAAYAIASQAERIVLPRTGAVGSIGVLLVHADFSQAMADRGVAVTLIHAGRHKVDGNPYEALPEGVRADLQARVEASRALFAETVAAGRGARLSRQQALATEAQVLDGAAAVAAGLADEVSDLRRAFAAFRAELFDPHLTSPRAGTPAAAKETPTMTDETTTGAARGTAAEGSAPPMETAEGSGGGAPAANVAVAEAAELIEIGQQAARLGLAVDVADAMRRGLSAAALRRTVLDGLAARGDGADLVAHAPTAAAGPKESPLLAAARRTAEAQAASRRA,not soluble
6,MNYRIIPVTAFSQNCSLIWCEQTRLAALVDPGGDAEKIKQEVDDSGLTLMQILLTHGHLDHVGAAAELAQHYGVPVFGPEKEDEFWLQGLPAQSRMFGLEECQPLTPDRWLNEGDTISIGNVTLQVLHCPGHTPGHVVFFDDRAKLLISGDVIFKGGVGRSDFPRGDHNQLISSIKDKLLPLGDDVIFIPGHGPLSTLGYERLHNPFLQDEMPVW,soluble
7,MNYVPDTSVIVDGRFTAFISEREGSNVILPEAMLSEIEHQANEGRAIGFAALEELKKLRKMESEGKISIEIEGERPKEWQIKRAKSGEIDEMIRQVAFQYDATLVTGDIIQRDVAIVKGITVEYLSPPEKIIKNIEE,not soluble
8,MPAAQEVQISIAEVIEVRGYGLNAPELLSVAVSAADRLPPCPKGTVFDTENVFLNSKGELVIKTVATSRVDRSFVPPEWAKGEEDAQAAAVYCLGAVLRAAGAEEAADVDLFSLVNILTVAMTGTRPTAHRMGQMARNQLRGRDPASMLMCIYEELMGDEDTNQKRPNRKINFLNEKSMF,not soluble
9,MPAGANSRTPATDFVQDYAAKRQAQMERARQLREDRLQQQQQQRQSSPKTSGGGNAYNSSPTYTAVPSASGGGTATAAPTSRQPPPPSLNVPRSRHVTPGHDSADSGSSPGKCGDGCVLYIKEQDFKQATQAGIITPDQARQLWAMLSNQIIRVCSPSAHANAVSVSSLLALSNNSYNSSGWAAGGPQSTGGSEFGASISLESLRTSIAYFKREQQRLQQQGGGGAAGAAHGSNAQGRHPLSSSPPALSNTVGQPLSQSRGLPQRQLQYDGNANSDYCRNDGAANDNEQRALGAPMPLRGSGGSGGGGRGGRPAWNSDVEVRHEDDYDDDRNRHAPSSMSTMNSGAAALKKPRTGRTNTVRPAAKGPAASSSPAAGASGVLGTSAQGRGYGSDNEEAGNNAYMPQQPSSAVPRGAKAGGSGAASRRPPASRPTAPPPSSGAPVNLDDVPVGGGGGGGGGMNDWANAYPPGMVPPTSTGGNDAIAAEAAAAAQEPMQECRTCGRRFRISVVMRHEALCRNQANKPRKVFNMREQRLDGVEGIKEVQRTAARSGGGGGGRGAGGGGGRGGGADAAAGAAKGKLPKWKVQHEQFQAAMRAVRQQKEAGGGFGSGRMAPPPAPIPEEYDDRVPCPHCGRKFAQDVAARHIPKCATTIAKPKGIRPIRR,not soluble
10,MPAHSFRIAAIPGDGIGLEVLPEGIRVLEAAALKHGLALEFDTFEWASCDYYLQHGKMMPDDWAEQLKQYDAIYFGAVGWPDKVPDHISLWGSLLKFRREFDQYVNIRPVRLFPGVPCALANRKVGDIDFVVVRENTEGEYSSLGGIMFENTENEIVIQESIFTRRGVDRILKYAFDLAEKRERKHVTSATKSNGMAISMPYWDKRTEAMAAHYPHVSWDKQHIDILCARFVLQPERFDVVVASNLFGDILSDLGPACAGTIGIAPSANLNPERNFPSLFEPVHGSAPDIFGKNIANPIAMIWSGALMLEFLGQGDERYQRAHDDMLNAIERVIADGSVTPDMGGTLSTQQVGAAISDTLARLD,soluble
11,MPALKKIEQSLDHLFQIEKYGKDSAFSRFIPAVYDPIKFPWQQFFEANFVDLFNGLMMHGSENVNKVFLAVFPTDDVLETFISQSTPGDLLFMHHPLVMECGDPLGRSGRGFLPIPEKYLQGIKEKQLSIYTCHVPMDFHQTHGTSISIAKALNATVVDDFAYGGPEQEPVGLICEIDETSTEALQKHLKQLFQIPYTDFEGKRHDSIKKIAIIAGCGDVVSLMKEAEEKGAEAYITGEIHCHIDNDYGRHKYSLIMDYVKETNMSLIGVSHSASEYLVKETLMYDWFKENFDVDVILLPQEKWWLMAGDPLEHHHHHH,not soluble
12,MPCDPIGQFAVLECLDYRWYESLDVRLYGSFGLLQLFPELEKAVMRAFARAIPQGDDTPRVIGYYYTIGAESPIAVRKTPGATPHDLGAPNEHVWEKTNYTSYQDCNLWKDLGCDFVLQVYRDFLLTGADDVQFLRDCWDAIVETLDYVKTFDLDGDGIPENSGAPDQTFDDWRLQGVSAYCGGLWLAALAAAIAISDILLQNHQDSATKEHLLYQKSTYETWLTKSLPIYQEKLWNGKYYRLDSESGSDVVMADQLCGQFYANLLELPDIVPSDRAISALQTVYDACFLKFYDGQFGAANGVRPDGSPENPKATHPLEVWTGINFGLAAFLVQMGMKDEGFRLTQAVVEQIYNNGLQFRTPEAITAAGTFRASTYLRPMAIWAIYLMIGLEHHHHHH,not soluble
13,MPCQKKSNPTELHISTGREIVQRNFVFRNTTGKDFLLKLHATNEAVTFPTEVFRFPPLAHRAIQFRVNSSKLSQWDKMNLLIKGYVLPIYAKSLKQFIDQKKTAGTKEQEAFSLSVKFTDQFSAPQTVINLPGYATCIESTDYPVDVEELDTTTAVNIERDVSTAVPIGSMMGFVEEYKRRQLNKGCWFSNYICGTEKQPEKQSMRSSRRSSRSSNHSAKSSKACRIQANKKNKSDVNVCLEATPCGGSTIQA,not soluble
14,MPCRGLHSIPAGPVEFPEIATVYVMCGEKLTVMIDAGVSNSIADFSFLDKLDYIVLTHLHIDHIGLLPELLQVYKAKVLVKSGFKKYLTSEDGLKKLNESAEKVLGDLYYVYGGLEKKLDQDKVIEVEGNEEFDLGGYRMRLIYTPGHARHHMSVLVDDFLFTGDSAGAYFNGVVIPTTPPVIDYKMYMESLKRQIELKPKVVGFAHGGLVSPKIMEEHLKQMLSKEEIQINVDIGGVAGEILRKQIEVNLRGLRESKKSI,soluble
15,MPCRLTRLFGIEFPIIQAPMAGVQGSALAIAVSEAGGLGSLPCAMLSLEALEAELTAIRSQTAKPINVNFFCHREPVAQAAKQAAWLEQLAPYFAEFNLDPNAQPAGAQRTPYSKAQAEVLAKFKPEVVSFHFGLPDEELLLEIKSWGSKVISTATTVEEALWLEARGADAIIAQGLEAGGHRGHFLSEDLTEQLGTFSLLPQIIAAVEIPVIAAGGIVDATTVRAAMTMGASAVQVGTAYLLCPECNTSAIHREALQSDAAQHTALTNLFSGRPARGIVNRFMAEMGPMNEAVPDFPLASSAVAGLRTAAERLGFWDFSPLWCGQNASGCRAIPAADLTRSFVLSLPSSCVEPQEKSG,soluble
16,MPDNEVDLLFAQLSPEDLIEWSDYLPESFTDRALAQMGERQRQRFELYDQYSENEIGRYTDHQMLVLSDKATVAQAQRFFRRIELDCNDNLFIVDEADKYLGTVRRYDIFKHEPHEPLISLLSEDSRALTANTTLLDAAEAIEHSREIELPVIDDAGELIGRVTLRAATALVREHYEAQLMATAGMDESDDLFAPILKGAQRRAV,soluble
17,MPDRHVASSETKRGGAGMTDRELSDQAIAVLVDVARTAGRDLNAGQRLELDRLVSDGLVAVSTSGDPAGQRHYRLTVAGQTALDQRGVGANEA,not soluble
